Here are results for 1 molecule from patent US20200270352A1.

As usually defined, the Kd is the equilibrium constant for the complex coming apart.

Experiment [1] concerns the target soluble recombinant human IGF-1R hetero-tetramer (2 α chains and the extracellular domains of 2 β chains) with C-terminal 10-His tag (R&D Systems 305-GR-50) (human) (UniProt P08069). Kind of experiment: SPR, Ln(2)/koff. Background: SPR reads the build-up and loss of mass on a sensor chip optically.
Experiment [2] shares this target. The experiment in a line: SPR Biacore X100, His-captured h-IGF-1R (about 600 RU), mean of 4 experiments.

B1: humanized antibody hz208F2 VH3/VL3 (hz208F2 H026/L024) (antibody, human IgG1, kappa, V domains shown)
VH: QVQLVQSGAEVKKPGASVKMSCKASGYTFTSYYIYWVKQAPGQGLEWLGWIWPGDGSTKYNEKFQGRVTLTADKSSNTAYMFLSSLRSEDTAVYFCASPMITPNYAMDYWGQGTLVTVSS
VL: DIQMTQSPSSLSASVGDRVTISCRASQDISKYLNWYQQKPGKAPKLLIYYTSRLHSGVPSRFSGRGSGTDYSLTISNLQPEDFATYFCQQGSTLPYTFGGGTKVEIKR
Turning to B1, in experiment [1], the half-life of the complex lay in the range of 2 to 3 h. Also, the dissociation constant (Kd) in experiment [2] worked out at 0.06 nM.
